# In PMC8449659, “Depolymerization of biorefinery lignin by improved laccases of the white‐rot fungus Obba rivulosa” (Microbial Biotechnology, 2021):
# B1: rOrLcc1 (variant rOrLcc1-D208N) (Obba rivulosa; D229N) (protein)
# chain: AIGPVTDLVITDAFVTPDGPNLGREAVLAGGTFPGPLIQGNKGDNFQINVVNNLTNHTMLKTTSIHWHGLFQHGTNWADGPAFVNQCPIASGNSFLYNFNVPDQAGTFWYHSHLATQYCDGLRGPLVVYDPNDPYADLYDVDDESTVITLSDWYHAAASTLTFPTFDTTLINGLGRFAGTGGTDSDLAVITVEQGKRYRFRLAAISCNPNWVFSIDEHVMTIIEADAVNTLPLTVDAIQIFAAQRYSFVLNANQTVGNYWIRANPNNGNMGFANGINSAILRYSGATIEDPTTNSTIVNQLNEADLSPLTNPQAPGAPSQDPGAVDVAMNLAFSFNGTRLFINGVSFVPPSVPVLLQILSGSMTAQDLLPTGSVYTLPRNATVQISMPGNIIAGPHPFHLHGHTFSVIRSAGESDYNYDNPVQRDTVSIGGATDNVTIRFTTNNPGPWFLHCHIDWHLQAGFAIVFAEDTPDIASANPVPQAWSDLCPTYDALDPSDT
# notes: codon-optimized cDNA in pPicZalphaA, secreted from Pichia pastoris X-33, purified in two steps
# B2: rOrLcc2-L497V (variant rOrLcc2-D206N) (Obba rivulosa; D227N/L518V) (protein)
# chain: AIGPVTDLTITDVSISPDGFERAAVLAGGTFPGPLITGNIGDNFQINVVNQLSNETMLESTTIHWHGLFQKGTAWADGPAFVSQCPIATGNSFLYDFSVPDQAGTFWYHSHLATQYCDGLRGPLVVYDPNDAYLSDYDVDDDTTVITLADWYHTAATLGPRFPTQADATLINGLGRYSGGPESNLTVITVESGKRYRFRLVSISCNENYVFSIDDHEMIVIEADGVETQPVTVDSIQIFAAQRYSFILNATEAVDNYWIRATPDLGTTGFTDGINSAILRYVGANDTDPTTASNTTNLLSELDLHPLTNAAAPGAASQDPGSVDVSMNLELGFDGTNFTINGATFVPPTVPVLLQILSGAQSATDLLPSGSVFTLPSNSTVQVTLAAGTVAGGPHPFHLHGHTFSVVRSAGSDTYNYDNPVQRDTVSIGADGDNVTIRFDTNNPGPWFLHCHIDWHLNAGFAIVFAEDTADIASANPVPDSWSDLCPTYDALPSDEV
# notes: codon-optimized cDNA in pPicZalphaA, C-terminal L497V to remove possible ER-retention signal SDEL, secreted from Pichia pastoris X-33, purified in two steps
# Substrate: COc1cccc(OC)c1O
# Experiment: purified protein
# Format: biochemical, Obba rivulosa
# Settings: O2 co-substrate, error is 95% confidence interval
# [1] = pH 3.5, citrate phosphate buffer, 0-31 mM substrate
# [2] = pH 6.0, citrate phosphate buffer, 0-2 mM substrate
Protein,Km [1] [µM],Vmax [1] [µM/min],kcat [1] [s⁻¹],kcat/Km [1] [M⁻¹ s⁻¹],Km [2] [µM],Vmax [2] [µM/min],kcat [2] [s⁻¹],kcat/Km [2] [M⁻¹ s⁻¹]
B1,3668 ± 270,216,44,12000,,,,
B2,,,,,38 ± 0,150,112,2.95e+06
